Consider ten molecules from patent US20150056162A1 (published 2015).

A word on the Kd: it is a measure of binding affinity in units of concentration. Low values mean a tighter complex, high ones a looser complex.

Test [1] has as its target T1, IL-13Rα2, biotinylated (human, UniProt Q14627 27-343, biotinylated (site not stated)).
T1 chain: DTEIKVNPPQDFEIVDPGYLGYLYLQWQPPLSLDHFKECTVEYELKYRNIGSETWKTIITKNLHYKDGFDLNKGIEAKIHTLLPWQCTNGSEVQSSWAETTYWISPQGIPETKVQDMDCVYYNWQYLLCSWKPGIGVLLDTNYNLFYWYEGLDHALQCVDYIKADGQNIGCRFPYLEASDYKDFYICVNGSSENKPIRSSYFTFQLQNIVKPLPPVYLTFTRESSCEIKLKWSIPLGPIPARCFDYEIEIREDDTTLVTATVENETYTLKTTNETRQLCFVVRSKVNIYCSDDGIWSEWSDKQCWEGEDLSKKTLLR
Nature of the test: SPR; kinetic.

In test [2] the target is A6. Nature of the test: SPR; kinetic. (In general: Surface plasmon resonance follows binding to a sensor surface in real time, without labels.)
Test [3] addresses C3. Nature of the test: SPR; kinetic.
Test [4] concerns the target C7. Nature of the test: SPR; kinetic.
Test [5] addresses A7. Nature of the test: SPR; kinetic.
In test [6] the target is C10. Nature of the test: SPR; kinetic.
Test [7] has as its target C12. Briefly: SPR; kinetic.
The target of test [8] is C9. Briefly: SPR; kinetic.
For test [9], the target named is C2. Briefly: SPR; kinetic.
Test [10] has as its target A8. Briefly: SPR; kinetic.
Test [11] deals with B6. Briefly: SPR; equilibrium.
The target in test [12] is B6. Nature of the test: SPR; kinetic.
For test [13], the target named is C3. Nature of the test: SPR; equilibrium.
The target of test [14] is C7. Briefly: SPR; equilibrium.
Test [15] has as its target C10. Nature of the test: SPR; equilibrium.
For test [16], the target named is C12. Briefly: SPR; equilibrium.
Test [17] deals with C9. Nature of the test: SPR; equilibrium.
Test [18] deals with C2. Nature of the test: SPR; equilibrium.
Test [19] concerns the target T1, IL-13Rα2, biotinylated. Nature of the test: SPR; kinetic.
Test [20] concerns the target T1, IL-13Rα2, biotinylated. Nature of the test: SPR; equilibrium.

B1: IL-13 variant C11 (ligand)
chain: PGPVPPSTAHRELIEELVNITQNQKAPLCNGSMVWSINLTAGMYCAALESLINVSGCSAIEKTQRMLSGFCPHKVSAGQFSSLHVTGRKIEVAQFVKDLLLHLKKLFKEGQFNHHHHHH
The molecule B1 gave a Kd in test [1] of 0.0001 nM.

B2: IL-13 variant C4 (ligand)
chain: PGPVPPSTAVRELIEELVNITQNQKAPLCNGSMVWSINLTAGMYCAALESLINVSGCSAIEKTQRMLSGFCPHKVSAGQFSSLHVRDTRIEVAQFVKDLLNHLKELFTEGQFNHHHHHH
Molecule B2 had a Kd in test [1] of 0.393 nM. Compared with the last molecule, the Kd is about 3900-fold higher.

B3: IL-13 variant D7 (ligand)
chain: PGPVPPSTAARELIEELFNITQNQKAPLCNGSMVWSINLTAGMYCAALESLINVSGCSAIEKTKRMLSGFCPHKVSAGQFPSLHVKKTRIEVAQFVKDLLIHLRKLFKEGQFNHHHHHH
Consider B3, for which, in [1], the Kd was determined as 0.003 nM.

B4: IL-13Rα2 (receptor)
chain: DTEIKVNPPQDFEIVDPGYLGYLYLQWQPPLSLDHFKECTVEYELKYRNIGSETWKTIITKNLHYKDGFDLNKGIEAKIHTLLPWQCTNGSEVQSSWAETTYWISPQGIPETKVQDMDCVYYNWQYLLCSWKPGIGVLLDTNYNLFYWYEGLDHALQCVDYIKADGQNIGCRFPYLEASDYKDFYICVNGSSENKPIRSSYFTFQLQNIVKPLPPVYLTFTRESSCEIKLKWSIPLGPIPARCFDYEIEIREDDTTLVTATVENETYTLKTTNETRQLCFVVRSKVNIYCSDDGIWSEWSDKQCWEGEDLSKKTLLR
modifications: biotinylated (site not stated)
Consider B4, for which the dissociation constant (Kd) in test [2] was found to be 0.267 nM; in test [3] it was 0.379 nM; in test [4], 0.272 nM; in test [5], 0.218 nM; in [6], 5 nM; in test [7], 0.053 nM. Besides, the Kd in [8] was 0.259 nM; in test [9], 0.025 nM; in test [10], 0.263 nM; in test [11], 53 nM.

B5: IL-13Rα1 (receptor)
chain: GGGGAAPTETQPPVTNLSVSVENLCTVIWTWNPPEGASSNCSLWYFSHFGDKQDKKIAPETRRSIEVPLNERICLQVGSQCSTNESEKPSILVEKCISPPEGDPESAVTELQCIWHNLSYMKCSWLPGRNTSPDTNYTLYYWHRSLEKIHQCENIFREGQYFGCSFDLTKVKDSSFEQHSVQIMVKDNAGKIKPSFNIVPLTSRVKPDPPHIKNLSFHNDDLYVQWENPQNFISRCLFYEVEVNNSQTETHNVFYVQEAKCENPEFERNVENTSCFMVPGVLPDTLNTVRIRVKTNKLCYEDDKLWSNWSLNDIFEAQKIEWHEHHHHHH
modifications: biotin on the C-terminal biotin acceptor peptide (coexpressed with BirA ligase)
Turning to B5, the dissociation constant Kd in test [2] amounted to 1.9 nM; in [12], 5.9 nM; in [5] it was 1.18 nM; in test [10], 2.06 nM; in [13], 16000 nM; in [14], 35000 nM. The Kd in [15] turned out to be 264 nM; in [16], 15000 nM; in test [17], 31000 nM; in [18], 4000 nM.

B6: IL-13 variant DN (ligand)
chain: PGPVPPSTAVRALIEELINITQNQKAPLCNGSMVWSINRTAGMYCAALESLINVSGCSAIEKTQDMLSGFCPHKVSAGQFSSLHVRSSKIEVAQFVKDLLFHLRTLFREGQFNHHHHHH
Consider B6, for which the dissociation constant (Kd) in test [19] was 0.391 nM.

B7: IL-13 variant B4 (ligand)
chain: PGPVPPSTALSELIEELINITQNQKAPLCNGSMVWSINPTAGMYCAALESLINVSGCSAIEKTQRMLSGFCPHKVAAGQFSSLHDKGSMIEVAQFVKDLLYHLRTLFREGQFNHHHHHH
As for B7, in [20], binding was characterised by a dissociation constant (Kd) of 108 nM.

B8: IL-13 variant A11 (ligand)
chain: PGPVPPSTAVRELIEELINITQNQKAPLCNGSMVWSINRTAGMYCAALESLINVSGCSAIEKTQRMLSGFCPHKVSAGQFSSLHVRSSKIEVAQFVKDLLFHLRTLFREGQFNHHHHHH
On to B8, for which the Kd in [1] amounted to 0.391 nM.

B9: IL-13 variant A5 (ligand)
chain: PGPVPPSTALIELIEELINITQNQKAPLCNGSMVWSINLTAGIYCAALESLINVSGCSAIEKTQRMLSGFCPHKVSAGQFSSLHVKGSKIEVAQFVKDLLHHLRALMREGQFNHHHHHH
As for B9, in test [20], the Kd came to 50 nM.

B10: IL-13 variant B2 (ligand)
chain: PGPVPPSTALRELIEELINITQNEKAPLCNGSMVWSINLTAGIYCAALESLINVSGCSAIEKTQRMLSGFCPHKVSAGQFSSLHVTGSKIEVAQFVKDLLYHLRALFREGQFNHHHHHH
For B10, the affinity in [1], expressed as Kd, was 1.5 nM.
